Reference: IntAct's records for PubMed 22244764

B1: PHD finger protein 12 (Mus musculus), Q5SPL2 (parent)
chain: MWEKMETKTIVYDLDTSGGLMEQIQALLAPPKTDEAEKRSRKPEKESRRSGRATNHDSCDSCKEGGDLLCCDHCPAAFHLQCCNPPLSEEMLPPGEWMCHRCTVRRKKREQKKELGHVNGLVDKSSKRTTSPSSDTDLLDRPASKTELKAIAHARILERRASRPGTPTSNASTETPTSEHNDVDEDIVDVDEEPVAAEPDYVQPQLRRPFELLIAAAMERNPTQFQLPNELTCTTALPGSSKRRRKEETTGKNVKRTQHELDHNGLVPLPVKVCFTCNRSCRVAPLIQCDYCPLLFHMDCLEPPLTAMPLGRWMCPNHIEHVVLNQKNLTLSNRCQVFDRFQDTISQHVVKVDFLNRIHKKHPPNRRVLQSVKRRSLKVPDAIKSQYQFPPPLIAPAAIRDGELICSGVPEESQTHLLNSEHLATQAEQQEWLCSVVALQCSILKHLSAKQMPSPWDSEQTEKADIKPVIVTDSSITTSLQTADKAPLPSHYPLSCPSAVSTQNSLGCSPPHQPPTLEDISCSSCVEKSKKAPCGTANGPVNTEIKANGPHLYSSPTDSTDPRRLPGANTPLPGLTHRQGWPRPLTPPSAGGLQNHVGIIVKTENATGPSSCPQRSLVPVPSLPPSIPSSCASIENTSTLHRKTVQSQIGPSSTESRPLGSPPNATRVLTPPQAAGDSILATGANQRFCSPAPSSDGKVSPGTLSIGSALTVPSFPANSTAMVDLTNSLRAFMDVNGEIEINMLDEKLIKFLALQRVHQLFPSRVQASPGNVGTHPLASGGHHPEVQRKEVQARAVFCPLLGLGGAVNMCYRTLYIGTGADMDVCLTNYGHCNYVSGKHACIFYDENTKHYELLNYSEHGTTVDNVLYSCDFSEKTPPTPPSSIVAKVQSVIRRRRHQKQDEEPSEEAAMMSSQAQGPQRRPCNCKASSSSLIGGSGAGWEGTALLHHGSYIKLGCLQFVFSITEFATKQPKGDASLLQDGVLAEKLSLKPHQGPVLRSNSVP
B2: Mortality factor 4-like protein 1 (Homo sapiens), Q9UBU8-2 (parent)
chain: MAPKQDPKPKFQEGERVLCFHGPLLYEAKCVKVAIKDKQVKYFIHYSGWNKNWDEWVPESRVLKYVDTNLQKQRELQKANQEQYAEGKMRGAAPGKKTSGLQQKNVEVKTKKNKQKTPGNGDGGSTSETPQPPRKKRARVDPTVENEETFMNRVEVKVKIPEELKPWLVDDWDLITRQKQLFYLPAKKNVDSILEDYANYKKSRGNTDNKEYAVNEVVAGIKEYFNVMLGTQLLYKFERPQYAEILADHPDAPMSQVYGAPHLLRLFVRIGAMLAYTPLDEKSLALLLNYLHDFLKYLAKNSATLFSASDYEVAPPEYHRKAV
B3: PHD finger protein 12 (Homo sapiens), Q96QT6 (parent)
chain: MWEKMETKTIVYDLDTSGGLMEQIQALLAPPKTDEAEKRSRKPEKEPRRSGRATNHDSCDSCKEGGDLLCCDHCPAAFHLQCCNPPLSEEMLPPGEWMCHRCTVRRKKREQKKELGHVNGLVDKSGKRTTSPSSDTDLLDRSASKTELKAIAHARILERRASRPGTPTSSASTETPTSEQNDVDEDIIDVDEEPVAAEPDYVQPQLRRPFELLIAAAMERNPTQFQLPNELTCTTALPGSSKRRRKEETTGKNVKKTQHELDHNGLVPLPVKVCFTCNRSCRVAPLIQCDYCPLLFHMDCLEPPLTAMPLGRWMCPNHIEHVVLNQKNMTLSNRCQVFDRFQDTVSQHVVKVDFLNRIHKKHPPNRRVLQSVKRRSLKVPDAIKSQYQFPPPLIAPAAIRDGELICNGIPEESQMHLLNSEHLATQAEQQEWLCSVVALQCSILKHLSAKQMPSHWDSEQTEKADIKPVIVTDSSVTTSLQTADKTPTPSHYPLSCPSGISTQNSLSCSPPHQSPALEDIGCSSCAEKSKKTPCGTANGPVNTEVKANGPHLYSSPTDSTDPRRLPGANTPLPGLSHRQGWPRPLTPPAAGGLQNHTVGIIVKTENATGPSSCPQRSLVPVPSLPPSIPSSCASIENTSTLQRKTVQSQIGPPLTDSRPLGSPPNATRVLTPPQAAGDGILATTANQRFSSPAPSSDGKVSPGTLSIGSALTVPSFPANSTAMVDLTNSLRAFMDVNGEIEINMLDEKLIKFLALQRIHQLFPSRVQPSPGSVGTHQLASGGHHIEVQRKEVQARAVFYPLLGLGGAVNMCYRTLYIGTGADMDVCLTNYGHCNYVSGKHACIFYDENTKHYELLNYSEHGTTVDNVLYSCDFSEKTPPTPPSSIVAKVQSVIRRRRHQKQDEEPSEEAAMMSSQAQGPQRRPCNCKASSSSLIGGSGAGWEGTALLHHGSYIKLGCLQFVFSITEFATKQPKGDASLLQDGVLAEKLSLKPHQGPVLRSNSVP

Variants of: B1
Conditions: with MORF4L1, Q9UBU8-2

Row | Variant | effect of a mutation on the interaction
1 | P228A | decreasing interaction
2 | L213A | disrupting interaction
3 | F210A | disrupting interaction
4 | L227A | disrupting interaction
5 | F225A | disrupting interaction strength

Variants of: B2
Conditions: with phf12_human PHF12, Q96QT6

Row | Variant | effect of a mutation on the interaction
6 | M228A | decreasing interaction
7 | V227A | decreasing interaction
8 | L287A | decreasing interaction
9 | V268A | decreasing interaction
10 | W172A | decreasing interaction
11 | Y235A | disrupting interaction

Variants of: B2
Conditions: with phf12_mouse Phf12, Q5SPL2

Row | Variant | effect of a mutation on the interaction
12 | V227A | decreasing interaction
13 | L168A | decreasing interaction
14 | L287A | decreasing interaction

Variants of: B3
Conditions: with MORF4L1, Q9UBU8-2

Row | Variant | effect of a mutation on the interaction
15 | N221E | decreasing interaction
16 | P228A | decreasing interaction
17 | L213A | decreasing interaction
18 | F210A | decreasing interaction
19 | L227A | decreasing interaction
20 | F225A | decreasing interaction
